pKd: −log10 of the molar value.
Assays:
[1] = target: T1, influenza A virus RNA polymerase (RNAP; PB1-PB2-PA) (Influenza A virus A/NorthernTerritories/60/68 (H3N2)) (UniProt Q910D6+Q91MB1+P03433); assay: smFRET titration
[2] = target: T1, influenza A virus RNA polymerase (RNAP; PB1-PB2-PA) (Influenza A virus A/NorthernTerritories/60/68 (H3N2)); assay: fluorescence anisotropy

Row | Sequence | pKd [1] | pKd [2]
1 | AGCGAAAGCAGGAGUUU / UAAACUCCUUGUUUCUACU [cRNA promoter 5U17/3U4] | 7.89 | 
2 | AGCGAAAGCAGGAGUUU [5' cRNA] |  | 7.36
3 | UAAACUCCUUGUUUCUACU [3' cRNA] |  | < 6.00

Reference: paper PMC5137447
